Laboratory results as given in publication PMC3741289.

How the values were obtained:
[1] = target: HspB1 (Hsp27) (human (endogenous in HeLa)) (UniProt P04792); assay: co-IP; as the 150 mM experiment, but washes of the immunoprecipitated proteins in IPP300 buffer (0.3 M NaCl)
[2] = target: HspB1 (Hsp27) (human (endogenous in HeLa)) (UniProt P04792); assay: co-IP; pooled gel filtration fractions (pool I of WT cells, pool II of R120G cells) with anti-HspB1 or anti-HspB5 antibody, 4 h at 4°C, protein G sepharose; washes in IPP150 (20 mM Tris-HCl pH 8, 150 mM NaCl, 0.05% NP-40); immunoblot of total, precipitate and depleted supernatant
[3] = target: wild type HspB5 (αB-crystallin) (human) (UniProt P02511); assay: SEC; cells treated for 2 h with 60 µM menadione before lysis; 10,000×g supernatant on Sepharose 6B in TEM buffer; fractions immunoblotted
Sequence of wild type HspB5 (αB-crystallin) (human) (P02511 whole entry): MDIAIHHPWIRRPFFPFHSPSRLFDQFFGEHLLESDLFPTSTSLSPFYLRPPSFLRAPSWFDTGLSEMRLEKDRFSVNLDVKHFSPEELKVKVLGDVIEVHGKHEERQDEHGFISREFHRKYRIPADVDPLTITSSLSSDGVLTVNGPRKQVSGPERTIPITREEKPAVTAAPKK

[4] = target: wild type HspB5 (αB-crystallin) (human) (UniProt P02511); assay: SEC; untreated Neo, WT or R120G HeLa cells lysed in TEM buffer with 0.1% Triton X-100; 10,000×g supernatant on a Sepharose 6B column (1×100 cm) in TEM buffer (20 mM Tris-HCl pH 7.4, 20 mM NaCl, 5 mM MgCl2, 0.1 mM EDTA); pooled fractions immunoblotted
[5] = target: wild type HspB5 (αB-crystallin) (human) (UniProt P02511); assay: co-IP; as the 150 mM experiment, but washes of the immunoprecipitated proteins in IPP300 buffer (0.3 M NaCl)

Sequence of HspB1 (Hsp27) (human (endogenous in HeLa)) (P04792 whole entry): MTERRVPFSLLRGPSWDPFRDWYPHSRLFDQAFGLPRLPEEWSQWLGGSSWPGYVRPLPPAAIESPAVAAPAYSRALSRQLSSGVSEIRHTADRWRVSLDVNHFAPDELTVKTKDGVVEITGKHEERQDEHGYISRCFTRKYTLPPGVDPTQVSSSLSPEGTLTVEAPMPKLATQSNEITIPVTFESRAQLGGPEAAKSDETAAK

percent of the soluble phosphorylated form in the complex [3] | percent of the total cellular content of the phosphorylated form in the complex [3] | Substance | also measured
65% | 31% | HspB1 phosphorylated at serine 78 (from UniProt P04792 1-205) (natural protein) | 
56% | 28% | HspB1 phosphorylated at serine 15 (from UniProt P04792 1-205) (natural protein) | 

More lines, now with the values behind:

Substance | percent of the soluble phosphorylated form in the complex [3] | percent of the total cellular content of the phosphorylated form in the complex [3] | also measured
wild type HspB5 (αB-crystallin) (from UniProt P02511 1-175) (natural protein) |  |  | percent of the partner removed from the complex by the 300 mM NaCl wash [1]: 40%; percent of the proteins in the pooled fractions that were in the complex [2]: 100%
HspB1 phosphorylated at serine 82 (from UniProt P04792 1-205) (natural protein) | 51% | 27% | percent of the total cellular content of the phosphorylated form in the complex [4]: 56%
HspB1 (Hsp27) (from UniProt P04792 1-205) (natural protein) |  |  | percent of the partner removed from the complex by the 300 mM NaCl wash [5]: 40%; percent of soluble HspB1 back in the small oligomers (out of the complex) [3]: 38%; percent of HspB1 sharing the native size of HspB5 [4]: 90%
